{
  "source": "patent US20240115744A1",
  "about": "“FIBRIN-BINDING COMPOUNDS FOR IMAGING AND TREATMENT” (Collagen Medical, LLC, priority 2019, published 2024)",
  "key": {"[1]": {"assay": "Blood analysis in rat model of carotid artery crush injury (blood clearance)", "assay_type": "in vivo", "conditions": "relative to the other compounds compared", "procedure": "Rat carotid endothelial injury model in vivo studies were conducted, wherein the common carotid artery is isolated and crushed briefly with a hemostat, resulting in mural thrombus formation at the site of the crush. The vessel wall fibrin is then imaged with our PET compounds. All six compounds were evaluated in this model.\nAdult male Wistar rats were anesthetized by isoflurane (1-2% in medical air). Body temperature was maintained at 37° C. using a thermo-regulated heating pad. The right femoral vein and artery were cannulated for compound injection and blood sampling, respectively. Endothelial injury was induced by crush injury to the right common carotid artery (1-2 cm proximal to the carotid bifurcation) by clamping the vessel with a hemostat for 5 minutes. Immediately following the surgical procedures, rats were placed in a micro-PET/CT scanner. Compound (200-600 μL) was injected, PET-CT images were acquired, and blood samples were drawn from the femoral artery prior to compound injection and at 2, 5, 10, 15, 30, 60, 90, 120 min post injection. Tissues were harvested at the end for ex vivo analyses.\nBlood samples were drawn from prior to probe injection and at 2, 5, 10, 15, 30, 60, 90, 120 min post injection. Each blood sample was weighed and counted using a gamma-counter. The activity in each sample was calculated as percent injected dose (% ID) per gram of tissue."}, "[2]": {"target": "soluble fibrin fragment DD(E)", "assay": "fluorescence polarization DD(E) assay"}, "[3]": {"target": "soluble fibrin fragment DD(E)", "assay": "fluorescence polarization, displacement of the TRITC peptide from DD(E)"}},
  "note": "*1 amine or outer side, *2 acyl side, *3 side chain or, on linkers, in order; H or OH if unused. Where a SMILES comes first, the peptide text is derived from it. Bridges are numbered along the chain shown (N, C = ends). [ ]: non-standard residue; d: D form. The star is where a group is joined. NODAGA = O=C(O)CN1CCN(CC(=O)O)CCN(C(CCC(=O)*)C(=O)O)CC1; Tyr(3-Cl) = N[C@@H](Cc1ccc(O)c(Cl)c1)C(=O)O; Nicotinoyl(6-F) = O=C(c1ccc(F)nc1)*; X1 = O=C([C@@H]1CC(O)CN1[*:1])[*:2]; Hyp = O=C(O)[C@@H]1C[C@@H](O)CN1",
  "data": [
    {"molecule": "CC[C@H](C)[C@H](NC(=O)[C@H](Cc1cnc[nH]1)NC(=O)[C@@H]1CSSC[C@H](NC(=O)[C@@H](CCC(=O)O)NC(=O)[C@@H](Cc2ccc(O)cc2)NC(=O)CCC(C(=O)O)N2CCN(CC(=O)O)CCN(CC(=O)O)CC2)C(=O)N2CC(O)C[C@H]2C(=O)N[C@@H](Cc2ccc(O)c(Cl)c2)C(=O)NCC(=O)N[C@@H](CC(C)C)C(=O)N1)C(=O)N[C@@H](CCC(N)=O)C(N)=O", "note": "(some centres unmarked) [Compound ^68Ga-19, metal not drawn] ({NODAGA}-[dY][dE]C[X1][Tyr(3-Cl)]GLCHIQ-NH2; disulfide 3-8)", "values": [
      {"measurement": "blood clearance", "setting": "[1]; rat carotid artery crush injury, 2-120 min post injection", "result": "faster blood clearance"},
      {"measurement": "metabolic stability", "setting": "[1]; rat", "result": "better metabolic stability"}
    ]},
    {"molecule": "{Nicotinoyl(6-F)}-Y[dE]C[Hyp][Tyr(3-Cl)]GLCYIQ-NH2 (disulfide 3-8; SMILES CC[C@H](C)[C@H](NC(=O)[C@H](Cc1ccc(O)cc1)NC(=O)[C@@H]1CSSC[C@H](NC(=O)[C@@H](CCC(=O)O)NC(=O)[C@H](Cc2ccc(O)cc2)NC(=O)c2ccc(F)nc2)C(=O)N2C[C@H](O)C[C@H]2C(=O)N[C@@H](Cc2ccc(O)c(Cl)c2)C(=O)NCC(=O)N[C@@H](CC(C)C)C(=O)N1)C(=O)N[C@@H](CCC(N)=O)C(N)=O)", "note": "[Compound 7]", "values": [
      {"measurement": "Kd", "setting": "[2]", "result": "< 600", "unit": "nM"},
      {"measurement": "Ki", "setting": "[3]", "result": 580, "unit": "nM"}
    ]},
    {"molecule": "{Nicotinoyl(6-F)}-[dY][dE]C[Hyp][Tyr(3-Cl)]GLCYI[dL]-NH2 (disulfide 3-8; SMILES CC[C@H](C)[C@H](NC(=O)[C@H](Cc1ccc(O)cc1)NC(=O)[C@@H]1CSSC[C@H](NC(=O)[C@@H](CCC(=O)O)NC(=O)[C@@H](Cc2ccc(O)cc2)NC(=O)c2ccc(F)nc2)C(=O)N2C[C@H](O)C[C@H]2C(=O)N[C@@H](Cc2ccc(O)c(Cl)c2)C(=O)NCC(=O)N[C@@H](CC(C)C)C(=O)N1)C(=O)N[C@H](CC(C)C)C(N)=O)", "note": "[Compound 9]", "values": [
      {"measurement": "Ki", "setting": "[3]", "result": 730, "unit": "nM"}
    ]},
    {"molecule": "{Nicotinoyl(6-F)}-[dY][dE]C[Hyp][Tyr(3-Cl)]GLCHIQ-NH2 (disulfide 3-8; SMILES CC[C@H](C)[C@H](NC(=O)[C@H](Cc1c[nH]cn1)NC(=O)[C@@H]1CSSC[C@H](NC(=O)[C@@H](CCC(=O)O)NC(=O)[C@@H](Cc2ccc(O)cc2)NC(=O)c2ccc(F)nc2)C(=O)N2C[C@H](O)C[C@H]2C(=O)N[C@@H](Cc2ccc(O)c(Cl)c2)C(=O)NCC(=O)N[C@@H](CC(C)C)C(=O)N1)C(=O)N[C@@H](CCC(N)=O)C(N)=O)", "note": "[Compound 2]", "values": [
      {"measurement": "Kd", "setting": "[2]", "result": "< 600", "unit": "nM"},
      {"measurement": "Ki", "setting": "[3]", "result": 70, "unit": "nM"}
    ]},
    {"molecule": "{Nicotinoyl(6-F)}-Y[dE]C[Hyp][Tyr(3-Cl)]GLCHIQ-NH2 (disulfide 3-8; SMILES CC[C@H](C)[C@H](NC(=O)[C@H](Cc1c[nH]cn1)NC(=O)[C@@H]1CSSC[C@H](NC(=O)[C@@H](CCC(=O)O)NC(=O)[C@H](Cc2ccc(O)cc2)NC(=O)c2ccc(F)nc2)C(=O)N2C[C@H](O)C[C@H]2C(=O)N[C@@H](Cc2ccc(O)c(Cl)c2)C(=O)NCC(=O)N[C@@H](CC(C)C)C(=O)N1)C(=O)N[C@@H](CCC(N)=O)C(N)=O)", "note": "[Compound 4]", "values": [
      {"measurement": "Kd", "setting": "[2]", "result": "< 600", "unit": "nM"},
      {"measurement": "Ki", "setting": "[3]", "result": 180, "unit": "nM"}
    ]},
    {"molecule": "{Nicotinoyl(6-F)}-[dY][dE]C[Hyp][Tyr(3-Cl)]GLCYI[dQ]-NH2 (disulfide 3-8; SMILES CC[C@H](C)[C@H](NC(=O)[C@H](Cc1ccc(O)cc1)NC(=O)[C@@H]1CSSC[C@H](NC(=O)[C@@H](CCC(=O)O)NC(=O)[C@@H](Cc2ccc(O)cc2)NC(=O)c2ccc(F)nc2)C(=O)N2C[C@H](O)C[C@H]2C(=O)N[C@@H](Cc2ccc(O)c(Cl)c2)C(=O)NCC(=O)N[C@@H](CC(C)C)C(=O)N1)C(=O)N[C@H](CCC(N)=O)C(N)=O)", "note": "[Compound 11]", "values": [
      {"measurement": "Ki", "setting": "[3]", "result": 1010, "unit": "nM"}
    ]},
    {"molecule": "{Nicotinoyl(6-F)}-Y[dE]C[Hyp][Tyr(3-Cl)]GLCHI[dL]-NH2 (disulfide 3-8; SMILES CC[C@H](C)[C@H](NC(=O)[C@H](Cc1c[nH]cn1)NC(=O)[C@@H]1CSSC[C@H](NC(=O)[C@@H](CCC(=O)O)NC(=O)[C@H](Cc2ccc(O)cc2)NC(=O)c2ccc(F)nc2)C(=O)N2C[C@H](O)C[C@H]2C(=O)N[C@@H](Cc2ccc(O)c(Cl)c2)C(=O)NCC(=O)N[C@@H](CC(C)C)C(=O)N1)C(=O)N[C@H](CC(C)C)C(N)=O)", "note": "[Compound 8]", "values": [
      {"measurement": "Ki", "setting": "[3]", "result": 640, "unit": "nM"}
    ]},
    {"molecule": "{Nicotinoyl(6-F)}-Y[dE]C[Hyp][Tyr(3-Cl)]GLCYI[dQ]-NH2 (disulfide 3-8; SMILES CC[C@H](C)[C@H](NC(=O)[C@H](Cc1ccc(O)cc1)NC(=O)[C@@H]1CSSC[C@H](NC(=O)[C@@H](CCC(=O)O)NC(=O)[C@H](Cc2ccc(O)cc2)NC(=O)c2ccc(F)nc2)C(=O)N2C[C@H](O)C[C@H]2C(=O)N[C@@H](Cc2ccc(O)c(Cl)c2)C(=O)NCC(=O)N[C@@H](CC(C)C)C(=O)N1)C(=O)N[C@H](CCC(N)=O)C(N)=O)", "note": "[Compound 13]", "values": [
      {"measurement": "Ki", "setting": "[3]", "result": 1250, "unit": "nM"}
    ]},
    {"molecule": "{Nicotinoyl(6-F)}-Y[dE]C[Hyp][Tyr(3-Cl)]GLCHI[dQ]-NH2 (disulfide 3-8; SMILES CC[C@H](C)[C@H](NC(=O)[C@H](Cc1c[nH]cn1)NC(=O)[C@@H]1CSSC[C@H](NC(=O)[C@@H](CCC(=O)O)NC(=O)[C@H](Cc2ccc(O)cc2)NC(=O)c2ccc(F)nc2)C(=O)N2C[C@H](O)C[C@H]2C(=O)N[C@@H](Cc2ccc(O)c(Cl)c2)C(=O)NCC(=O)N[C@@H](CC(C)C)C(=O)N1)C(=O)N[C@H](CCC(N)=O)C(N)=O)", "note": "[Compound 5]", "values": [
      {"measurement": "Kd", "setting": "[2]", "result": "< 600", "unit": "nM"},
      {"measurement": "Ki", "setting": "[3]", "result": 230, "unit": "nM"}
    ]},
    {"molecule": "{Nicotinoyl(6-F)}-Y[dE]C[Hyp][Tyr(3-Cl)]DLCYIQ-NH2 (disulfide 3-8; SMILES CC[C@H](C)[C@H](NC(=O)[C@H](Cc1ccc(O)cc1)NC(=O)[C@@H]1CSSC[C@H](NC(=O)[C@@H](CCC(=O)O)NC(=O)[C@H](Cc2ccc(O)cc2)NC(=O)c2ccc(F)nc2)C(=O)N2C[C@H](O)C[C@H]2C(=O)N[C@@H](Cc2ccc(O)c(Cl)c2)C(=O)N[C@@H](CC(=O)O)C(=O)N[C@@H](CC(C)C)C(=O)N1)C(=O)N[C@@H](CCC(N)=O)C(N)=O)", "note": "[Compound 12]", "values": [
      {"measurement": "Ki", "setting": "[3]", "result": 1200, "unit": "nM"}
    ]},
    {"molecule": "{Nicotinoyl(6-F)}-[dY][dE]C[Hyp][Tyr(3-Cl)]GLCYIQ-NH2 (disulfide 3-8; SMILES CC[C@H](C)[C@H](NC(=O)[C@H](Cc1ccc(O)cc1)NC(=O)[C@@H]1CSSC[C@H](NC(=O)[C@@H](CCC(=O)O)NC(=O)[C@@H](Cc2ccc(O)cc2)NC(=O)c2ccc(F)nc2)C(=O)N2C[C@H](O)C[C@H]2C(=O)N[C@@H](Cc2ccc(O)c(Cl)c2)C(=O)NCC(=O)N[C@@H](CC(C)C)C(=O)N1)C(=O)N[C@@H](CCC(N)=O)C(N)=O)", "note": "[Compound 6]", "values": [
      {"measurement": "Kd", "setting": "[2]", "result": "< 600", "unit": "nM"},
      {"measurement": "Ki", "setting": "[3]", "result": 340, "unit": "nM"}
    ]},
    {"molecule": "{Nicotinoyl(6-F)}-Y[dE]C[Hyp][Tyr(3-Cl)][dD]LCYIQ-NH2 (disulfide 3-8; SMILES CC[C@H](C)[C@H](NC(=O)[C@H](Cc1ccc(O)cc1)NC(=O)[C@@H]1CSSC[C@H](NC(=O)[C@@H](CCC(=O)O)NC(=O)[C@H](Cc2ccc(O)cc2)NC(=O)c2ccc(F)nc2)C(=O)N2C[C@H](O)C[C@H]2C(=O)N[C@@H](Cc2ccc(O)c(Cl)c2)C(=O)N[C@H](CC(=O)O)C(=O)N[C@@H](CC(C)C)C(=O)N1)C(=O)N[C@@H](CCC(N)=O)C(N)=O)", "note": "[Compound 14]", "values": [
      {"measurement": "Ki", "setting": "[3]", "result": 2760, "unit": "nM"}
    ]},
    {"molecule": "{Nicotinoyl(6-F)}-[dY][dE]C[Hyp][Tyr(3-Cl)]GLCHI[dL]-NH2 (disulfide 3-8; SMILES CC[C@H](C)[C@H](NC(=O)[C@H](Cc1c[nH]cn1)NC(=O)[C@@H]1CSSC[C@H](NC(=O)[C@@H](CCC(=O)O)NC(=O)[C@@H](Cc2ccc(O)cc2)NC(=O)c2ccc(F)nc2)C(=O)N2C[C@H](O)C[C@H]2C(=O)N[C@@H](Cc2ccc(O)c(Cl)c2)C(=O)NCC(=O)N[C@@H](CC(C)C)C(=O)N1)C(=O)N[C@H](CC(C)C)C(N)=O)", "note": "[Compound 3]", "values": [
      {"measurement": "Kd", "setting": "[2]", "result": "< 600", "unit": "nM"},
      {"measurement": "Ki", "setting": "[3]", "result": 140, "unit": "nM"}
    ]}
  ]
}
